# Numbering of substitutions follows the chain as printed. Names may count otherwise. Like-named read-outs stand apart in the source and are kept apart here. Ends that are not written are not given here. * marks the point of attachment. FITC = O=C1OC2(c3ccc(O)cc3Oc3cc(O)ccc32)c2ccc(NC(=S)*)cc21
# T1: GST-Aim21^504,507,509E (S. cerevisiae, UniProt P40563 1-679, Aim21^504,507,509E | Aim21^504,507,509E | Aim21^504,507,509E)
# T1 sequence (looked up): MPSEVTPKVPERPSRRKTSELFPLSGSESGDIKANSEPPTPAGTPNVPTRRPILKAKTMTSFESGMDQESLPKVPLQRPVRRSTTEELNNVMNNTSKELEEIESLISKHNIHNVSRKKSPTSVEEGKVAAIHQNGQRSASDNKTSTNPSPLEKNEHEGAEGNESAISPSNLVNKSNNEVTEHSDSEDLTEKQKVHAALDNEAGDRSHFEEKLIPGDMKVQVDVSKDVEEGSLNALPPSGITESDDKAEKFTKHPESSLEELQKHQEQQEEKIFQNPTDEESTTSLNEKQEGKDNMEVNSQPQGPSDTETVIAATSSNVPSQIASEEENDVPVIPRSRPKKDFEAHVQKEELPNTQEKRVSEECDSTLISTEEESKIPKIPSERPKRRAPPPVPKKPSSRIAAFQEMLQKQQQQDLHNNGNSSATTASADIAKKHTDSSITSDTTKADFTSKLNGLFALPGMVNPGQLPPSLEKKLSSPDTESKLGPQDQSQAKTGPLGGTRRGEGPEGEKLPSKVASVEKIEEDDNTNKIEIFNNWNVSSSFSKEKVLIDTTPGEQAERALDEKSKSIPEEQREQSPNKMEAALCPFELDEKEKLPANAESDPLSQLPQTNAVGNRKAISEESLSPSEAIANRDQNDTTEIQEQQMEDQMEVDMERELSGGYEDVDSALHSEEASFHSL
# T2: His-tagged Aim21 (His-Aim21) (S. cerevisiae, UniProt P40563 1-679)
# T2 sequence (looked up): T1 sequence (looked up) with E504R, E507R, E509R
# T3: His-Tda2 I103Q (S. cerevisiae, UniProt P40045 2-126, I103Q)
# T3 sequence: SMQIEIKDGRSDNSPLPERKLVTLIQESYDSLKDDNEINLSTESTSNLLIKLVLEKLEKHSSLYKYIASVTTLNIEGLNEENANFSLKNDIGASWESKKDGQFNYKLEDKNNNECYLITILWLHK
# T4: His-Tda2 K107E (S. cerevisiae, UniProt P40045 2-126, K107E)
# T4 sequence: T3 sequence with Q102I, K106E
# T5: Aim21^1-600-GST (S. cerevisiae, UniProt P40563 1-600)
# T5 sequence (looked up): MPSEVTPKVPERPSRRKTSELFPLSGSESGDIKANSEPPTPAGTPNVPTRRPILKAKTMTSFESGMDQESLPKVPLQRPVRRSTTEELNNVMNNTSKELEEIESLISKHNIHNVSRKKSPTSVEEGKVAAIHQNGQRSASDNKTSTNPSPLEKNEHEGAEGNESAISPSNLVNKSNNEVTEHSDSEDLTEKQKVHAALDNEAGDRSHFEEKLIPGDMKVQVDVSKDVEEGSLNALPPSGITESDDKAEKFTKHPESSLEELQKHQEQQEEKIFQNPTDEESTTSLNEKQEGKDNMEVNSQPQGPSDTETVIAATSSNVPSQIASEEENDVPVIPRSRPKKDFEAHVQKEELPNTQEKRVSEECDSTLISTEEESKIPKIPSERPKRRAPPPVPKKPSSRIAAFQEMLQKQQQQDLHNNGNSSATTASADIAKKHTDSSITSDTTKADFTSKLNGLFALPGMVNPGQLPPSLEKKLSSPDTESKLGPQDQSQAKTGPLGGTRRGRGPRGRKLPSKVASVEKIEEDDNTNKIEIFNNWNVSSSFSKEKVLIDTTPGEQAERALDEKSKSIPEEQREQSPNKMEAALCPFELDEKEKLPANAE
# B1: 6-histidine-tagged Tda2 (His-Tda2) (natural protein, S. cerevisiae)
# chain: T3 sequence with Q102I
# B2: His-Tda2 D101A (natural protein, S. cerevisiae)
# chain: T3 sequence with D100A, Q102I
# B3: His-Tda2 F86V (natural protein, S. cerevisiae)
# chain: T3 sequence with F85V, Q102I
# B4: FITC-Aim21^CPI+TBR with 25 µM His-Tda2 (reconstituted Tda2-Aim21 peptide complex) (complex, S. cerevisiae)
# peptide: KTGPLGGTRRGRGPRGRKLPSKVASVEKIEEDDNTNKIEIFNNWNVS
# chain: T3 sequence with Q102I
# modifications: FITC label (printed FITC-KTGPLGG...)
# B5: 6-histidine-tagged actin capping protein (His-Cap1/2 heterodimer) (complex, S. cerevisiae)
# chain 1: MSSSKFEEVINKIINDSPPGELREVYDDLIKITSENSKNTILDAIENYNVQNCIPIEVNGNSVIISKYNKEGAKFFDPVNSVIFSVNHLERKGLDIEPYEFTHAKIEKGQLKELHDKLHEYLLQSFPGDVSFAVYPVPEEISKISIIIVSTKYNPNNFWNGHWRSSYIYDLETRELSGQISTQVHYYEDGNVSFQSGKDINQSNVDDVVCTIRDIETNFENDLDLSFFDLNEKQFKALRRRLPVTRSKINWGSAIGSYRLGKNAAEGK
# chain 2: MSDAQFDAALDLLRRLNPTTLQENLNNLIELQPNLAQDLLSSVDVPLSTQKDSADSNREYLCCDYNRDIDSFRSPWSNTYYPELSPKDLQDSPFPSAPLRKLEILANDSFDVYRDLYYEGGISSVYLWDLNEEDFNGHDFAGVVLFKKNQSDHSNWDSIHVFEVTTSPSSPDSFNYRVTTTIILHLDKTKTDQNSHMMLSGNLTRQTEKDIAIDMSRPLDVIFTSHVANLGSLIEDIESQMRNLLETVYFEKTRDIFHQTKNAAIASSAEEANKDAQAEVIRGLQSL
# Assays:
# [1] = target: T1, GST-Aim21^504,507,509E; experiment: pull-down
# [2] = target: T2, His-tagged Aim21 (His-Aim21); experiment: SEC + other: sucrose density gradient fractionation
# [3] = target: the molecule itself; experiment: as above
# [4] = target: B3; experiment: fluorescence polarisation
# [5] = target: T3, His-Tda2 I103Q; experiment: pull-down
# [6] = target: B3; experiment: pull-down
# [7] = target: T4, His-Tda2 K107E; experiment: pull-down
# [8] = target: the molecule itself; experiment: SEC
# [9] = target: B1; experiment: fluorescence polarisation
# [10] = target: B5; experiment: fluorescence polarisation
# [11] = target: B5; experiment: fluorescence polarisation; remark: listed apart in the source
# [12] = target: T5, Aim21^1-600-GST; experiment: pull-down
binder,measurement,setting,value
B1,binding result,[1],binds
same,stoichiometry N,[2],2 Aim21 molecules per Tda2 homodimer
same,stoichiometry N,[3],2
{FITC}-KIEIFNNWNVS [FITC-labeled Aim21 peptide spanning AA 529–539 (FITC-Aim21)],binding result,[4],binds
"KLPSKVASVEKIEEDDNTNKIEIFNNWNVSSSFSKEKVLIDTTPGE (domain or fragment, S. cerevisiae, UniProt P40563 510-555, looked up) [GST-Aim21^510-555 (wild type)]",binding result,[5],binds
same,binding result,[6],binds
same,binding result,[7],binds
B2,binding result,[8],binds
B3,binding result,[8],binds
"{FITC}-KTGPLGGTRRGRGPRGRKLPSKVASVEKIEEDDNTNKIEIFNNWNVS [FITC-labeled Aim21 peptide spanning AA 493–539, with the CPI motif and the TBR (FITC-Aim21^CPI+TBR)]",binding result,[9],binds
same,Kd,[10],3.1 µM
B4,Kd,[11],0.25 µM
B5,binding result,[12],binds

# Source: article PMC8351736 (Molecular Biology of the Cell, 2021)
